Assay results published in publication PMC3113550.
Values belong to the substance of their own block, whether it stands above or below them.

Assays:
Assay in all cases: AUC
[1] = molecular target: Mouse E-cadherin EC1-2 E11D (mouse)
[2] = molecular target: Mouse E-cadherin EC1-2 P5A (mouse)
[3] = molecular target: Mouse E-cadherin EC1-2 P5A P6A (mouse)
[4] = molecular target: Mouse E-cadherin EC1-2 P5G P6G (mouse)
[5] = molecular target: Mouse E-cadherin EC1-2 P5S P6S (mouse)
[6] = molecular target: Mouse E-cadherin EC1-2 P6A (mouse)
[7] = molecular target: Mouse E-cadherin EC1-2 W2F (mouse)
[8] = molecular target: Mouse E-cadherin EC1-2 wild-type (mouse)
[9] = molecular target: Mouse E-cadherin EC1-2 with one alanine inserted between residues 2 and 3 (mouse)
[10] = molecular target: Mouse E-cadherin EC1-2 with two alanines inserted between residues 2 and 3 (mouse)
[11] = molecular target: Mouse E-cadherin EC2-3 F108W del-TQE (mouse)
[12] = molecular target: Mouse N-cadherin EC1-2 P5A P6A (mouse)
[13] = molecular target: Mouse N-cadherin EC1-2 wild type (mouse)
[14] = molecular target: Mouse cadherin-11 EC1-2 F8A (mouse)
[15] = molecular target: Mouse cadherin-11 EC1-2 wild type (mouse)

- Kd [1]: 71.2 µM
Substance: Mouse E-cadherin EC1-2 E11D (domain or fragment)

- Kd [2]: 2.9 µM
Substance: Mouse E-cadherin EC1-2 P5A (domain or fragment)

- Kd [3]: 3.7 µM
Substance: Mouse E-cadherin EC1-2 P5A P6A (domain or fragment)

- Kd [4]: 2.7 µM
Substance: Mouse E-cadherin EC1-2 P5G P6G (domain or fragment)

- Kd [5]: 2.9 µM
Substance: Mouse E-cadherin EC1-2 P5S P6S (domain or fragment)

- Kd [6]: 4.8 µM
Substance: Mouse E-cadherin EC1-2 P6A (domain or fragment)

- Kd [7]: 246 µM
Substance: Mouse E-cadherin EC1-2 W2F (domain or fragment)

- Kd [8]: 96.5 µM
Substance: Mouse E-cadherin EC1-2 wild-type (domain or fragment)

- Kd [9]: 1520 µM
Substance: Mouse E-cadherin EC1-2 with one alanine inserted between residues 2 and 3 (domain or fragment)

- Kd [10]: 195 µM
Substance: Mouse E-cadherin EC1-2 with two alanines inserted between residues 2 and 3 (domain or fragment)

- Kd [11]: 46.5 µM
Substance: Mouse E-cadherin EC2-3 F108W del-TQE (domain or fragment)

- Kd [12]: 3.6 µM
Substance: Mouse N-cadherin EC1-2 P5A P6A (domain or fragment)

- Kd [13]: 25.8 µM
Substance: Mouse N-cadherin EC1-2 wild type (domain or fragment)

- Kd [14]: 3.7 µM
Substance: Mouse cadherin-11 EC1-2 F8A (domain or fragment)

- Kd [15]: 25.2 µM
Substance: Mouse cadherin-11 EC1-2 wild type (domain or fragment)
